The experiment has as its target VEGF-C and VEGF-D. Nature of the experiment: ELISA; after storage at -20 C or 5 C for up to 24 months. On the technique in general: ELISA stands for enzyme-linked immunosorbent assay.

Among the data in patent US20250296979A1 are decrease of binding activity against initiation of the stability study values, retold here.

The substance OPT-302 (Fc fusion) returned a decrease of binding activity against initiation of the stability study of 9 to 19%.
